Source: patent US20140235701, “NGF APTAMER AND APPLICATION THEREOF” (RIBOMIC INC., published 2014)
Numbering of substitutions follows the chain as printed.

Legend:
Settings in all cases: tags: R&D Systems; chain copies: 2
[1] = target: T1, NGF (nerve growth factor) (Homo sapiens, UniProt P01138 P01138:122-241); assay: cell_activity; neurite outgrowth inhibition; TF-1 IC50 6.924 nM
[2] = target: T1, NGF (nerve growth factor); assay: SPR; 145 mM NaCl, 5.4 mM KCl, 1.8 mM CaCl2, 0.8 mM MgCl2, 20 mM Tris pH 7.6; strong inhibition of NGF-receptor binding
[3] = target: T1, NGF (nerve growth factor); assay: cell_activity; neurite; TF-1 0.979
[4] = target: T1, NGF (nerve growth factor); assay: cell_activity; neurite; TF-1 0.013
[5] = target: T1, NGF (nerve growth factor); assay: cell_activity; neurite; TF-1 0.018
Procedure: (§1) With the neurite length per cell obtained by the addition of NGF alone as inhibitory activity 0%, and that of the cell obtained by NGF free culture for 2 days as inhibitory activity 100%, the inhibitory activity of the aptamer was calculated from the neurite length per cell obtained by culturing with the addition of NGF and the aptamer in mixture.
(§2) Two NGF receptor (human TrkA and human p75) genes were introduced into TF-1 cells (ATCC Number: CRL-2003), which is a human erythroleukemic cell line, by using a retrovirus vector to give cells that highly express two receptors simultaneously and stably. The cells were suspended in an RPMI-1640 medium containing 20% fetal bovine serum, and seeded in a white 96 well flat-bottom plate at 1000 cells (50 μL) per well. […] With the amount of luminescence per well obtained by the addition of NGF alone and culture of the cells for 3 days as inhibitory activity 0%, and that of the well obtained by NGF free culture for 3 days as inhibitory activity 100%, the inhibitory activity of the aptamer was calculated from the amount of luminescence per well obtained by culturing with the addition of NGF and the aptamer in mixture.

[6] = target: T1, NGF (nerve growth factor); assay: cell_activity; neurite; TF-1 <0.03
[7] = target: T1, NGF (nerve growth factor); assay: cell_activity; neurite; TF-1 0.03
[8] = target: T1, NGF (nerve growth factor); assay: cell_activity; neurite; TF-1 0.178
NT-4 (neurotrophin-4) = target: T2, NT-4 (neurotrophin-4) (Homo sapiens, UniProt P34130 P34130:81-210); assay: cell_activity; TF-1
T2 sequence: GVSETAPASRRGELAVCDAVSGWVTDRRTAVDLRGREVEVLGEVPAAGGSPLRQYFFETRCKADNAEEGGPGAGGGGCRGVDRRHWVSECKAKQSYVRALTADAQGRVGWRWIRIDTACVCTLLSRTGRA
Description: (§3) Using TF-1 cells, whether NGF aptamer inhibits BDNF, NT-3, NT-4 was examined. Human receptor genes (TrkB, TrkC, p75) for respective neurotrophic factors were introduced into TF-1 cells (ATCC Number: CRL-2003), which is a human erythroleukemic cell line, by using a retrovirus vector to give cells that highly express these receptors stably. TF-1 cells introduced with TrkB and p75 were used for the evaluation of inhibitory activity against BDNF, TF-1 cells introduced with TrkC and p75 were used for the evaluation against NT-3, and TF-1 cells introduced with TrkB alone were used for the evaluation against NT-4. These cells were suspended in an RPMI-1640 medium containing 20% fetal bovine serum, and seeded in a white 96 well flat-bottom plate at 1000 cells (50 μL) per well. Thereto was added a mixed solution 50 μL of human BDNF (final concentration 0.074 nM) or NT-3 (final concentration 0.074 nM) or NT-4 (final concentration 0.071 nM) and the aptamer (final concentration 1 μM-0.01 nM), which had been pre-reacted at room temperature for 30 min in a serum-free RPMI-1640 medium, 3 days later, 100 μL of CellTiter-Glo reagent for CellTiter-Glo Luminescent Cell Viability Assay (manufactured by Promega) was added to each well, chemiluminescence was measured by a microplate reader. With the amount of luminescence per well obtained by the addition of BDNF or NT-3 or NT-4 alone and culture of the cells for 3 days as inhibitory activity 0%, and that of the well obtained by culture for 3 days without addition of BDNF or NT-3 or NT-4 as inhibitory activity 100%, the inhibitory activity of the aptamer was calculated from the amount of luminescence per well obtained by culturing with the addition of BDNF or NT-3 or NT-4 and the aptamer in mixture. When the inhibitory activity was 0 or below, ‘0%’ is indicated. The 50% inhibitory concentration (IC₅₀) was determined from the concentrations at two, above and below points sandwiching the 50% inhibitory activity. An IC₅₀ value indicated as “>X” means that the inhibitory activity was not more than 50% when the indicated concentration X was the maximum measured concentration. N.D. means not measured.

NT-3 (neurotrophin-3) = target: T3, NT-3 (neurotrophin-3) (Homo sapiens, UniProt P20783 P20783:139-257); assay: cell_activity; TF-1
T3 sequence: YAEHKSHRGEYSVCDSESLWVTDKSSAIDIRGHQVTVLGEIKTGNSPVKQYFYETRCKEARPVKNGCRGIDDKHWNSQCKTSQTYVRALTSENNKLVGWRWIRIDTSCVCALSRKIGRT
Description: as §3

[9] = target: T1, NGF (nerve growth factor); assay: cell_activity; neurite; TF-1 0.051
[10] = target: T1, NGF (nerve growth factor); assay: cell_activity; neurite; TF-1 0.034
[11] = target: T1, NGF (nerve growth factor); assay: cell_activity; neurite; TF-1 0.085
[12] = target: T1, NGF (nerve growth factor); assay: cell_activity; neurite; TF-1 0.084
Procedure: as §1, §2

[13] = target: T1, NGF (nerve growth factor); assay: cell_activity; neurite; TF-1 0.021
[14] = target: T1, NGF (nerve growth factor); assay: cell_activity; neurite; TF-1 0.022
[15] = target: T1, NGF (nerve growth factor); assay: cell_activity; neurite; TF-1 0.037
[16] = target: T1, NGF (nerve growth factor); assay: SPR; neurite inhibition at 10 nM; no TF-1 inhibition
Procedure: The cells (2500 cells per well) were cultured for one day in an RPMI-1640 medium containing 2.5% horse serum and 1.25% fetal bovine serum in a 96 well flat-bottom plate coated with collagen type IV. […] Two days later, the cytoplasm and nuclei were stained using Cellomics Neurite Outgrowth Kit (manufactured by Thermo Scientific), and neurite length per cell was measured by Cellomics ArrayScan VTI (manufactured by Thermo Scientific). With the neurite length per cell obtained by the addition of NGF alone as inhibitory activity 0%, and that of the cell obtained by NGF free culture for 2 days as inhibitory activity 100%, the inhibitory activity of the aptamer was calculated from the neurite length per cell obtained by culturing with the addition of NGF and the aptamer in mixture.
Two NGF receptor (human TrkA and human p75) genes were introduced into TF-1 cells (ATCC Number: CRL-2003), which is a human erythroleukemic cell line, by using a retrovirus vector to give cells that highly express two receptors simultaneously and stably. The cells were suspended in an RPMI-1640 medium containing 20% fetal bovine serum, and seeded in a white 96 well flat-bottom plate at 1000 cells (50 μL) per well. […]

T1 sequence (P01138 122-241, one chain of several): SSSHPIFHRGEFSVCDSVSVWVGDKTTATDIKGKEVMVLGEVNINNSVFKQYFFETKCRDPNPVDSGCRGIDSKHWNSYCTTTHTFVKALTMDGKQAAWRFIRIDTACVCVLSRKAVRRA

B1: SEQ ID NO: 81 (ssRNA)
RNA: GGGUCCUGGUGAUAAGUUUCCGUCUUAUCACCUGUUACCC
modifications: 2'-F C and U; 2'-OH G; 2'-H (deoxy) A
IC50 [1]: 765 pM

B2: SEQ ID NO: 1 (ssRNA)
RNA: GGGAGAACUUCGACCAGAAGUUGACGACCAACUCGUCUCUUAUGGAUUUACGUGAACCCGUAUGUGCGCAUACAUGGAUCCUC
modifications: 2'-F C and U; 2'-OH G; 2'-H (deoxy) A
binding result [2]: binds

B3: SEQ ID NO: 88 (ssRNA)
RNA: GGGUCCUGUUCAAGAGUUUCCGUCUCGUGAACUGUUACCC
modifications: 2'-F C/U, dA, 2'-OH G
IC50 [3]: 572 pM

B4: SEQ ID NO: 76(1) (ssRNA)
RNA: B3 RNA with U9A, C11U, G29A, A31U
modifications: 2'-OMe G (G8,G34 2'-OH), dA, 2'-F C/U; 5',3' idT
IC50 [4]: 117 pM

B5: SEQ ID NO: 77(1) (ssRNA)
RNA: GGGUCCUGACUAAGAGUUUCCGUCUCGUAGUCUGUUACCC
modifications: 2'-OMe G (G8,G34 2'-OH), dA, 2'-F C/U; 5',3' idT
IC50 [4]: 126 pM

B6: SEQ ID NO: 78(1) (ssRNA)
RNA: B5 RNA with A9G, U11C, A29G
modifications: 2'-OMe G (G8,G34 2'-OH), dA, 2'-F C/U; 5',3' idT
IC50 [5]: 120 pM

B7: SEQ ID NO: 79(1) (ssRNA)
RNA: B5 RNA with A9G, C10U, G30A, U31C
modifications: 2'-OMe G (G8,G34 2'-OH), dA, 2'-F C/U; 5',3' idT
IC50 [6]: 289 pM

B8: SEQ ID NO: 80(1) (ssRNA)
RNA: B5 RNA with A9G
modifications: 2'-OMe G (G8,G34 2'-OH), dA, 2'-F C/U; 5',3' idT
IC50 [7]: 271 pM

B9: SEQ ID NO: 87(5) (ssRNA)
RNA: B3 RNA with U9C, A30G, A31G
modifications: as 87(4) plus 2'-OMe A15,A37; no 5' idT
IC50 [8]: 78 pM

B10: SEQ ID NO: 82(3) (ssRNA)
RNA: B5 RNA with A9G, C10A, G30U, U31C
modifications: as 82(1) except 2'-OMe C6
IC50 (NT-4 (neurotrophin-4)): 9360 pM | IC50 (NT-3 (neurotrophin-3)): 42000 pM | IC50 [9]: 255 pM

B11: SEQ ID NO: 82(6) (ssRNA)
RNA: B5 RNA with A9G, C10A, G30U, U31C
modifications: as 82(1) except 2'-OMe C21
IC50 [10]: 128 pM | IC50 (NT-4 (neurotrophin-4)): < 3000 pM | IC50 (NT-3 (neurotrophin-3)): < 30000 pM

B12: SEQ ID NO: 82(13) (ssRNA)
RNA: B5 RNA with A9G, C10A, G30U, U31C
modifications: as 82(1) except 2'-OMe C32
IC50 [10]: 146 pM | IC50 (NT-4 (neurotrophin-4)): 3060 pM | IC50 (NT-3 (neurotrophin-3)): 48800 pM

B13: SEQ ID NO: 82(21) (ssRNA)
RNA: B5 RNA with A9G, C10A, G30U, U31C
modifications: as 82(1) except 2'-OMe U4,C6,U11,C21,U23,U28,U30,C32,U35,C38-40
IC50 (NT-3 (neurotrophin-3)): < 30000 pM | IC50 [11]: < 100 pM

B14: SEQ ID NO: 82(23) (ssRNA)
RNA: B5 RNA with A9G, C10A, G30U, U31C
modifications: as 82(1) except 2'-OMe U4,C6,U11,C21,U23,C26,U30,C31,C32,U35,C38-40
IC50 (NT-3 (neurotrophin-3)): < 30000 pM | IC50 [12]: < 100 pM

B15: SEQ ID NO: 82(24) (ssRNA)
RNA: B5 RNA with A9G, C10A, G30U, U31C
modifications: as 82(1) except 2'-OMe U4,C6,U11,C21,U23,U28,U30,C31,C32,U35,C38-40
IC50 (NT-3 (neurotrophin-3)): < 30000 pM | IC50 [12]: < 100 pM

B16: SEQ ID NO: 156 (ssRNA)
RNA: B5 RNA with A9G, C10A, U17T, G30U, U31C
modifications: as 82(1) except dT17
IC50 (NT-4 (neurotrophin-4)): < 3000 pM | IC50 (NT-3 (neurotrophin-3)): < 30000 pM | IC50 [11]: < 100 pM

B17: SEQ ID NO: 158 (ssRNA)
RNA: B5 RNA with A9G, C10A, G30U, U31C, U33T
modifications: as 82(1) except dT33
IC50 (NT-4 (neurotrophin-4)): < 3000 pM | IC50 (NT-3 (neurotrophin-3)): < 30000 pM | IC50 [6]: 100 pM

B18: SEQ ID NO: 82(42) (ssRNA)
RNA: B5 RNA with A9G, C10A, G30U, U31C
modifications: as 82(25) except 2'-OMe A15
IC50 [13]: 37 pM

B19: SEQ ID NO: 82(46) (ssRNA)
RNA: B5 RNA with A9G, C10A, G30U, U31C
modifications: as 82(25) except 2'-OMe A29
IC50 [14]: 33 pM

B20: SEQ ID NO: 82(47) (ssRNA)
RNA: B5 RNA with A9G, C10A, G30U, U31C
modifications: as 82(25) except 2'-OMe A37
IC50 [14]: 46 pM

B21: SEQ ID NO: 78(4) (printed 76(4) in sequence list) (ssRNA)
RNA: B5 RNA with A9G, U11C, A29G
modifications: 2'-OMe G (G8,G34 2'-OH), dA, 2'-F C/U except 2'-OMe U4,C6,C10,C11,C21,U23,C26,U28,U31,C32,U35,C38-40; 5',3' idT
IC50 (NT-4 (neurotrophin-4)): < 100000 pM | IC50 (NT-3 (neurotrophin-3)): 3000 pM | IC50 [13]: 37 pM

B22: SEQ ID NO: 166 (ssRNA)
RNA: GGGUCCUGGAUAAGAGTUUCCGUCUCGUAUCCTGUUACCC
modifications: as 82(48) except dT17,dT33,dU36
IC50 [15]: 113 pM

B23: SEQ ID NO: 167 (ssRNA)
RNA: B22 RNA
modifications: as 82(48) except dT17,dT33
IC50 [15]: 128 pM

B24: SEQ ID NO: 99 (ssRNA)
RNA: GGGAGAACUUCGACCAGAAGUCCAAACGGGACUUUAUACCUCUGAGUCGCCUUUGCUCCUAUGUGCGCAUACAUGGAUCCUC
modifications: 2'-F C/U, dA, 2'-OH G
binding result [16]: binds

B25: SEQ ID NO: 100 (ssRNA)
RNA: GGGAGAACUUCGACCAGAAGACCAAACGGACUUUAUACCUCUGAGUCGCCUAUGCUCCUAUGUGCGCAUACAUGGAUCCUC
modifications: 2'-F C/U, dA, 2'-OH G
binding result [16]: binds
